Earlier results in paper PMC6893859 (Regulatory toxicology and pharmacology : RTP, 2018).

Key:
patients = settings: human, in vivo
humans = settings: human, in vivo

## CER-001: complex between recombinant human ApoA-I and dipalmitoyl phosphatidylcholine and sphingomyelin
patients
  safety and tolerability: safe and well tolerated

## CSL-112: reformulated reconstituted and purified ApoA1 (from CSL-111)
humans
  tolerability: well tolerated
